Measured values taken from US20180055923A1 (WASHINGTON UNIVERSITY, published 2018).

T1: human fibrinogen free from plasminogen and von Willebrand factor (Enzyme Research Laboratory) (human, UniProt P02671 20-629; P02675 31-491; P02679 27-437)
T1 construct: It was bought as purified protein and coated on plates; also called Fg; immobilized human fibrinogen
T1 sequence 1: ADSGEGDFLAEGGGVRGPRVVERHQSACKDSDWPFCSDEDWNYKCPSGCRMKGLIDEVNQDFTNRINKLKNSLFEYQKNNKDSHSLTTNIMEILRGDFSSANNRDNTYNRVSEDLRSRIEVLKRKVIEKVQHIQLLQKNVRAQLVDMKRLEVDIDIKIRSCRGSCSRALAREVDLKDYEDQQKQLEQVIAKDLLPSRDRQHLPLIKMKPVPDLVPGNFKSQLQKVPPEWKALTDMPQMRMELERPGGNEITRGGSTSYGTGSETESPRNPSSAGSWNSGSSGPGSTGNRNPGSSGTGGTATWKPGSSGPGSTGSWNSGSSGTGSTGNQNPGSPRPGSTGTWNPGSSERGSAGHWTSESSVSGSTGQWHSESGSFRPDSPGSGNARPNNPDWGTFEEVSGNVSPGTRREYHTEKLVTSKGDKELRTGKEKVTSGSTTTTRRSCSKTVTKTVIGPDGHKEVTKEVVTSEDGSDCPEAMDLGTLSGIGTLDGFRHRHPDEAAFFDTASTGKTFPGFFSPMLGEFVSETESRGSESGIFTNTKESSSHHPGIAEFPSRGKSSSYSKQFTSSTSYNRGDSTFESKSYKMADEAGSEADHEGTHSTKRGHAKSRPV
T1 sequence 2: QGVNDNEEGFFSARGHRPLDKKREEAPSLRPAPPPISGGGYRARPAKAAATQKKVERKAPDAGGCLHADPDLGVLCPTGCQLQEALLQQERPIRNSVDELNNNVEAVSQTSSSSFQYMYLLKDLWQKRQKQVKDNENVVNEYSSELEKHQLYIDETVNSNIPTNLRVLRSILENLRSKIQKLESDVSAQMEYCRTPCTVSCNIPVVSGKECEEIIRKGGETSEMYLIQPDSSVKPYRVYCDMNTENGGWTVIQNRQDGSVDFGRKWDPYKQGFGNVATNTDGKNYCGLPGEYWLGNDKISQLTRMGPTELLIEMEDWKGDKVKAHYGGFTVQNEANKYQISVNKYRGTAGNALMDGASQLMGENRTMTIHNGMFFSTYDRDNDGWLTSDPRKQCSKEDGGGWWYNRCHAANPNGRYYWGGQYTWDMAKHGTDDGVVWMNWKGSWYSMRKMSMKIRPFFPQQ
T1 sequence 3: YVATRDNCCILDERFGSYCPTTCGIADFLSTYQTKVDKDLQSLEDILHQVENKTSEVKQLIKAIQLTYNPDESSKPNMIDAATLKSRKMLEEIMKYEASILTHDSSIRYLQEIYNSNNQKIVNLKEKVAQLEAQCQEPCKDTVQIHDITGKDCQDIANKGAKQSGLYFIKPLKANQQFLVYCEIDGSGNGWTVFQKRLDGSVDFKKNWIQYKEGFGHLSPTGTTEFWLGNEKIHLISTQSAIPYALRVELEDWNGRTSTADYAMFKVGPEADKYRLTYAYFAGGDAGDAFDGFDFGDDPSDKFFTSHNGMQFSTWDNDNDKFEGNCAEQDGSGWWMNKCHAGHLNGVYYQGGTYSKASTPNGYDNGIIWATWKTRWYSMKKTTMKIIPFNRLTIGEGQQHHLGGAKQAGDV

B1: 6xHis-EbpA^CTD (C-terminal domain of EbpA, residues 594 to 1077) (other)
chain: MNGRTTQPLATAPEKVDFGVPSGKAPGVKLNVKKIWEEYDQDPTSRPDNVIYEISRKQVTDTANWQTGYIKLSKPENDTSNSWERKNVTQLSKTADESYQEVLGLPQYNNQGQAFNYQTTRELAVPGYSQEKIDDTTWKNTKQFKPLDLKVIKNSSSGEKNLVGAVFELSGKNVQTTLVDNKDGSYSLPKDVRLQKGERYTLTEVKAPAGHELGKKTTWQIEVSEQGKVSIDGQEVTTTNQVIPLEIENKFSSLPIRIRKYTMQNGKQVNLAEATFALQRKNAQGSYQTVATQKTDTTGLSYFKISEPGEYRMVEQSGPLGYDTLAGNYEFTVDKYGKIHYAGKNIEENAPEWTLTHQNNLKPFDLTVHKKADNQTPLKGAKFRLTGPDTDIELPKDGKETDTFVFENLKPGKYVLTETFTPEGYQGLKEPIELIIREDGSVTIDGEKVADVLISGEKNNQITLDVTNQAKVPLPETGGIGRLW
notes: Plasmid pSJH-541; not shown: N-terminal 6xHis tag from vector pQE-30Xa
B2: 6xHis-EbpA^NTD (N-terminal domain of EbpA, residues 115 to 577) (other)
chain: PEKITVPENTKETNKNDSAPEKTEQPTATEEVTNPFAEARMAPATLRANLALPLIAPQYTTDNSGTYPTANWQPTGNQNVLNHQGNKDGSAQWDGQTSWNGDPTNRTNSYIEYGGTGDQADYAIRKYARETTTPGLFDVYLNVRGNVQKEITPLDLVLVVDWSGSMNENNRIGEVQKGVNRFVDTLADSGITNNINMGYVGYSSDGYNNNAIQMGPFDTVKNPIKNITPSSTRGGTFTQKALRDAGDMLATPNGHKKVIVLLTDGVPTFSYKVSRVQTEADGRFYGTQFTNRQDQPGSTSYISGSYNAPDQNNINKRINSTFIATIGEAMALKQRGIEIHGLGIQLQSDPRANLSKQQVEDKMREMVSADENGDLYYESADYAPDISDYLAKKAVQISGTVVNGKVVDPIAEPFKYEPNTLSMKSVGPVQVQTLPEVSLTGATINSNEIYLGKGQEIQIHYQV
notes: not shown: N-terminal 6xHis tag from vector pQE-30Xa

Biological target: T1, human fibrinogen free from plasminogen …
Experiment: ELISA, purified protein on immobilized human fibrinogen, detected with mouse anti-EbpA^Full

| Binder | binding result |
| --- | --- |
| B1 | no binding |
| B2 | binds |
